According to patent US20150299328A1 (ARMAGEN TECHNOLOGIES, published 2015):

Columns and labels:
[1] = target: T1, HIR extracellular domain (ECD) (human, UniProt P06213 28-956, limits assumed); test: ELISA, HIR ECD plated
T1 construct: extracellular domain; also called HIR ECD; IR ECD
Description: The extracellular domain (ECD) of the HIR was purified by lectin affinity chromatography from serum free medium conditioned by CHO cells that were permanently transfected with the HIR ECD. The HIR ECD was plated in ELISA wells to bind the chimeric HIRMAb without IDUA fused, and the CHO-derived HIRMAb-IDUA fusion protein. […] The binding constants shown in FIG. 18 were determined by non-linear regression analysis of the binding isotherms.

[2] = target: T1, HIR extracellular domain (ECD); test: ELISA, HIR ECD plated, biotinylated goat anti-human IgG detection
Description: The affinity of the fusion protein for the HIR extracellular domain (ECD) was determined with an ELISA. CHO cells permanently transfected with the HIR ECD were grown in serum free media (SFM), and the HIR ECD was purified with a wheat germ agglutinin affinity column, as previously described in Coloma et al. (2000) Pharm Res, 17:266-274. The HIR ECD was plated on Nunc-Maxisorb 96 well dishes and the binding of the HIR Ab, or the HIR Ab-IDUA fusion protein, to the HIR ECD was detected with a biotinylated goat anti-human IgG (H+L) secondary antibody, followed by avidin and biotinylated peroxidase (Vector Labs, Burlingame, Calif.). The concentration of either HIR Ab or HIR Ab-IDUA fusion protein that gave 50% maximal binding was determined with a non-linear regression analysis.

Row | Binder | EC50 [1] [nM] | EC50 [2] [nM]
1 | chimeric HIR Ab (human-mouse chimeric antibody to the human insulin receptor) (antibody, human IgG1, kappa, Human IgG1 heavy chain constant region and human kappa light chain constant region; also called chimeric HIRMAb; HIRMAb) heavy: not shown light: DIQMTQSPSSLSASLGERVSLTCRASQDIGGNLYWLQQGPDGTIKRLIYATSSLDSGVPKRFSGSRSGSDYSLTISSLESEDFVDYYCLQYSSSPWTFGGGTKMEIKRTVAAPSVFIFPPSDEQLKSGTASVVCLLNNFYPREAKVQWKVDNALQSGNSQESVTEQDSKDSTYSLSSTLTLSKADYEKHKVYACEVTHQGLSSPVTKSFNRGEC | 0.75 | 0.61
2 | HIR Ab-IDUA fusion protein (COS cell derived; HIR Ab-HC-IDUA fusion/HIR Ab-LC antibody) (antibody, human IgG1, kappa, Bivalent antibody-enzyme fusion; It was made by dual transfection of COS cells with pHIR Ab-LC and pCD-HC-IDUA; also called HIR Ab-IDUA fusion antibody) heavy: not shown light: DIQMTQSPSSLSASLGERVSLTCRASQDIGGNLYWLQQGPDGTIKRLIYATSSLDSGVPKRFSGSRSGSDYSLTISSLESEDFVDYYCLQYSSSPWTFGGGTKMEIKRTVAAPSVFIFPPSDEQLKSGTASVVCLLNNFYPREAKVQWKVDNALQSGNSQESVTEQDSKDSTYSLSSTLTLSKADYEKHKVYACEVTHQGLSSPVTKSFNRGEC |  | 0.93
